Substitutions are numbered along the chain they refer to.
Legend:
[1] = target: T1, AlgW-Y212A (Pseudomonas aeruginosa, UniProt Q9HVX1 30-389, Y212A); assay: cell-based or functional assay
T1 sequence: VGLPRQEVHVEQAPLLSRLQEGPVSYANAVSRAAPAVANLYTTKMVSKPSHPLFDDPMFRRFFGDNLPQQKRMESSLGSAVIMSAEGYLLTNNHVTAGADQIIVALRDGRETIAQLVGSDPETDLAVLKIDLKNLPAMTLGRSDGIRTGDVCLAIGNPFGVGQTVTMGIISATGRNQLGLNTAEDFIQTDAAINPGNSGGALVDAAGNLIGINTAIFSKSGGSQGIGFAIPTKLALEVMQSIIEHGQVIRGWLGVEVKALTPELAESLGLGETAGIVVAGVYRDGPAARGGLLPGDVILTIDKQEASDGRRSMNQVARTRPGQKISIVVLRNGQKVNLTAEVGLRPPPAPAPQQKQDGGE

[2] = target: T2, AlgW-E266A (Pseudomonas aeruginosa, UniProt Q9HVX1 30-389, E266A); assay: cell-based or functional assay
T2 sequence: T1 sequence with A183Y, E237A

[3] = target: T3, AlgW-R279A (Pseudomonas aeruginosa, UniProt Q9HVX1 30-389, R279A); assay: cell-based or functional assay
T3 sequence: T1 sequence with A183Y, R250A

[4] = target: T4, AlgW-R347A (Pseudomonas aeruginosa, UniProt Q9HVX1 30-389, R347A); assay: cell-based or functional assay
T4 sequence: T1 sequence with A183Y, R318A

[5] = target: T5, AlgW-V284A (Pseudomonas aeruginosa, UniProt Q9HVX1 30-389, V284A); assay: cell-based or functional assay
T5 sequence: T1 sequence with A183Y, V255A

[6] = target: T6, AlgWS227A (inactive mutant of the periplasmic soluble domain of AlgW, for crystallization) (Pseudomonas aeruginosa, UniProt Q9HVX1 52-389, S227A); assay: crystal structure; protein mixed with peptide activator (tripeptide WVF or decapeptide …) prior to crystallization; hanging-drop vapor diffusion at 18°C; molecular replacement; details: both partners purified
T6 construct: AlgW of Pseudomonas aeruginosa, residues 52-389 (construct for crystallization), catalytic serine S227 changed to alanine; source: E. coli BL21(DE3), purified (Ni-NTA, Superdex-75 SEC)
T6 sequence: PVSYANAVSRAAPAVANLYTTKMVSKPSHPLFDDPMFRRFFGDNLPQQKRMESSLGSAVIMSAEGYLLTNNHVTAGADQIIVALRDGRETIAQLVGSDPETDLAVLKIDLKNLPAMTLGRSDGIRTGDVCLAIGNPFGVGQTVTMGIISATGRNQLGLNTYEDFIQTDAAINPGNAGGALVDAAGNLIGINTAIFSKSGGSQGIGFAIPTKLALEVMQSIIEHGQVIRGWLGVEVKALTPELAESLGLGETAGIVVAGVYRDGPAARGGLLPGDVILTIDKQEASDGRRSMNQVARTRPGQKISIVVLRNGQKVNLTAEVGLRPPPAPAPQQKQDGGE

B1: decapeptide SVRDELRWVF (MucE C-terminal tail) (peptide)
peptide: SVRDELRWVF
notes: C-terminal decapeptide of the periplasmic protein MucE of Pseudomonas aeruginosa; also called C-terminal decapeptide of MucE
In the case of B1, the “half-maximal activation concentration of the peptide activator (cleavage of Abz-VLAG-pNA)” value (“half-maximal activation concentration” below) [1] is reported as 2.12 μM, the “half-maximal activation concentration” value [2] is reported as 1.08 μM and the “half-maximal activation concentration” value [3] is reported as 2.19 μM. The “half-maximal activation concentration” value [4] was 1.85 μM, the “half-maximal activation concentration” value [5] was 3.56 μM and the “maximal cleavage activity of peptide-activated AlgW (Abz-VLAG-pNA)” value [5] was 63.1 μM min^−1. B1: binds [6].

Reference: PMC8545111, “Molecular Basis of the Versatile Regulatory Mechanism of HtrA-Type Protease AlgW from Pseudomonas aeruginosa” (mBio, 2021)
